Measurements published in patent publication US7838231 (REGENTS OF THE UNIVERSITY OF MICHIGAN, dated 2010).

Assays:
[1] = target: T1, inversin (NPHP2), human full length, yeast two-hybrid prey (human, UniProt Q9Y283 1-1065); assay: direct yeast two-hybrid assay
T1 construct: also called INVS
T1 sequence: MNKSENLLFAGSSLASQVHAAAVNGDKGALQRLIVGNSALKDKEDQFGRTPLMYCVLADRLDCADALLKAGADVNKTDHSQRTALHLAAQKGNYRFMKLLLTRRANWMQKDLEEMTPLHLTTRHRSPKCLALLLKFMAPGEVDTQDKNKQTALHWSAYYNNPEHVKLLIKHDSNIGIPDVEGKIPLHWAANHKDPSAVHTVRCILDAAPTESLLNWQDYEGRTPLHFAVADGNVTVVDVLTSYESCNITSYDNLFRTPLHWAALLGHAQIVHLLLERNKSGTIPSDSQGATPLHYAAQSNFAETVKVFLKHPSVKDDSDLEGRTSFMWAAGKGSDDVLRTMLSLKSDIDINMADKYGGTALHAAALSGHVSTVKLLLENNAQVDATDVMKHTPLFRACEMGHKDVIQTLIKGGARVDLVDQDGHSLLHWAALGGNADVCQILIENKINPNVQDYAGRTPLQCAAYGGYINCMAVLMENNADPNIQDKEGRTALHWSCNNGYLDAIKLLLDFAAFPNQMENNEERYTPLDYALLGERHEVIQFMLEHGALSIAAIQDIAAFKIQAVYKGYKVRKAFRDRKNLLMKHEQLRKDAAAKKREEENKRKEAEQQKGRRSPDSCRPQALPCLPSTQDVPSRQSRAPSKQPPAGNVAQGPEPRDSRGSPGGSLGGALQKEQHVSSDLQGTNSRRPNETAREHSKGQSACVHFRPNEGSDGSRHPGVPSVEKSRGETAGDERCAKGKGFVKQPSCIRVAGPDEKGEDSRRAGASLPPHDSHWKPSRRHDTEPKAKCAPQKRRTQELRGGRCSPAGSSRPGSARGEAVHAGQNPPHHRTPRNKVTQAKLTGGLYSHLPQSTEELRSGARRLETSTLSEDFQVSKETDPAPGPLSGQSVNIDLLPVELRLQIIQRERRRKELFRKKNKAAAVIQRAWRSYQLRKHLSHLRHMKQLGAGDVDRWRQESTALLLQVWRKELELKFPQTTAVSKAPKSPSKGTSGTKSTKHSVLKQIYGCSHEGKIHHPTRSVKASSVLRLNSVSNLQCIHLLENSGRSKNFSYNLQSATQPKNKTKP

[2] = target: T2, BBS7, human full length, yeast two-hybrid prey (human, UniProt Q8IWZ6 1-715); assay: direct yeast two-hybrid assay
T2 sequence (looked up): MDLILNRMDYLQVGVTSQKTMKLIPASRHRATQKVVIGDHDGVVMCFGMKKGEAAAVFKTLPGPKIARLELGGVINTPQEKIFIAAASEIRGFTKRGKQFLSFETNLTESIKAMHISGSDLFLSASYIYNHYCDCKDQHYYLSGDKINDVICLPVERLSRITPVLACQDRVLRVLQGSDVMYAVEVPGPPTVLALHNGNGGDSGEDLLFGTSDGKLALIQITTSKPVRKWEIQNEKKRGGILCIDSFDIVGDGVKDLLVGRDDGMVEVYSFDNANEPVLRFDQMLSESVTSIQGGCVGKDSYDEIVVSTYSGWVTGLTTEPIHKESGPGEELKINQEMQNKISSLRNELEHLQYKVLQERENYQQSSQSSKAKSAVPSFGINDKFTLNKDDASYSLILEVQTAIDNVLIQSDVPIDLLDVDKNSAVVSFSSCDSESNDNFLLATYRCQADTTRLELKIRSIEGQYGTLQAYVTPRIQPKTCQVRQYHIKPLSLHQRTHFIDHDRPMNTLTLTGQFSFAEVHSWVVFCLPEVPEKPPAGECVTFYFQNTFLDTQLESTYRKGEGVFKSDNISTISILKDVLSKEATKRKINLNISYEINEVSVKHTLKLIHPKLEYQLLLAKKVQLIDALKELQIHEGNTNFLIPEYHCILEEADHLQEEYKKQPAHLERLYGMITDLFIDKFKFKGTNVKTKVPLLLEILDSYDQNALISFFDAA

binding result [1]: no binding
binding result [2]: no binding
B1: full-length human nephrocystin-5 (NPHP5), yeast two-hybrid fusion (other, not shown: small tags and cut ends)
chain: MKPTGTDPRILSIAAEVAKSPEQNVPVILLKLKEIINITPLGSSELKKIKQDIYCYDLIQYCLLVLSQDYSRIQGGWTTISQLTQILSHCCVGLEPGEDAEEFYNELLPSAAENFLVLGRQLQTCFINAAKAEEKDELLHFFQIVTDSLFWLLGGHVELIQNVLQSDHFLHLLQADNVQIGSAVMMMLQNILQINSGDLLRIGRKALYSILDEVIFKLFSTPSPVIRSTATKLLLLMAESHQEILILLRQSTCYKGLRRLLSKQETGTEFSQELRQLVGLLSPMVYQEVEEQKLHQAACLIQAYWKGFQTRKRLKKLPSAVIALQRSFRSKRSKMLLEINRQKEEEDLKLQLQLQRQRAMRLSRELQLSMLEIVHPGQVEKHYREMEEKSALNIQKHWRGYRERKNFHQQRQSLIEYKAAVTLQRAALKFLAKCRKKKKLFAPWRGLQELTDARRVELKKRVDDYVRRHLGSPMSDVVSRELHAQAQERLQHYFMGRALEERAQQHREALIAQISTNVEQLMKAPSLKEAEGKEPELFLSRSRPVAAKAKQAHLTTLKHIQAPWWKKLGEESGDEIDVPKDELSIELENLFIGGTKPP
notes: Full-length NPHP5 cDNA (598 amino acid residues) fused to a GAL4 domain; also called KIAA0036
